Source: patent US20030077318A1

Tests used:
[1] = molecular target: T1, soluble H-2K^b (K^bsol), heterodimer of truncated K^b heavy chain and murine β-2 microglobulin, purified empty from Drosophila cells (murine), P01901; test: competitive RIA against [^125I]VSV-8 on K^bsol
T1 chain 1: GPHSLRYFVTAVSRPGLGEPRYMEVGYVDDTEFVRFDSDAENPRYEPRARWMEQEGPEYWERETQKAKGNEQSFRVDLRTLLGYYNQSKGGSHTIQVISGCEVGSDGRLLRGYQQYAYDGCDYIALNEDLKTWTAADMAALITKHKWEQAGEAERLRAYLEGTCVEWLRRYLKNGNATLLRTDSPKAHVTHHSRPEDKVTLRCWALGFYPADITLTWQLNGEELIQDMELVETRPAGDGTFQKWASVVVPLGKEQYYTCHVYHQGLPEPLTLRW
T1 chain 2: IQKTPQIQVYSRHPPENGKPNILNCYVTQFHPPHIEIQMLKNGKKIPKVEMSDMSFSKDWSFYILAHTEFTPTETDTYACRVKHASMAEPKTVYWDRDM

[2] = molecular target: T1, soluble H-2K^b (K^bsol), heterodimer of …; test: competitive RIA against [^125I]VSV-8 on K^bsol, P30 gel filtration, 23° C.

B1: OVA-24 (peptide)
chain: EQLESIINFEKLTEWTSSNVMEER
modifications: not checked
Q: For B1, which fold lower affinity than OVA-8 [1] is on record?
A: > 10000 fold

Q: And the Kd [2]?
A: 71 µM
